Results on 13 molecules are retold here after patent publication US20210009668A1 (ROCHE DIAGNOSTICS OPERATIONS, published 2021).

By Kd is commonly meant the equilibrium constant for the complex coming apart. As usually defined, the koff is a measure of how fast the partners let go of each other. Usually kon stands for a measure of how fast the partners come together.

Sequences and labels used below:
B1: parental anti-cTnT Fab fragment (wildtype TnT M-7 Fab, from antibody 12.1A11.11-7) (Fab, V domains shown)
VH: EVQLQQSGPELVKPGASVKMSCKASGYTFTDYYMKWVKQSHGKSLEWIGDINPNNGETFYNQKFKDKATLTVDKSSSTAYMQLNSLTSEDSAVYYCATRVFDYWGQGTTLTVSS
VL: DIVLTQSPASLAVSLGQRATISCKASQSVDYDGTSYMNWFQQKAGQPPKRLIYAASNLESGIPARFSGRGSGTDFALNIHPVEEEDAATYYCQQSNEDPYTFGGGTKLEIK
notes: also called wildtype Fab; TnT M-7 (wildtype) Fab
B2: anti-cTnT Fab mutant 15 (Y34I, Y104F) (Fab, V domains shown)
VH: EVQLQQSGPELVKPGASVKMSCKASGYTFTDYIMKWVKQSHGKSLEWIGDINPNNGETFYNQKFKDKATLTVDKSSSTAYMQLNSLTSEDSAVYYCATRVFDFWGQGTTLTVSS
VL: DIVLTQSPASLAVSLGQRATISCKASQSVDYDGTSYMNWFQQKAGQPPKRLIYAASNLESGIPARFSGRGSGTDFALNIHPVEEEDAATYYCQQSNEDPYTFGGGTKLEIK
notes: also called combination 15
B3: anti-cTnT Fab mutant 12 (Y34I, F60W, Y104F) (Fab, V domains shown)
VH: EVQLQQSGPELVKPGASVKMSCKASGYTFTDYIMKWVKQSHGKSLEWIGDINPNNGETWYNQKFKDKATLTVDKSSSTAYMQLNSLTSEDSAVYYCATRVFDFWGQGTTLTVSS
VL: DIVLTQSPASLAVSLGQRATISCKASQSVDYDGTSYMNWFQQKAGQPPKRLIYAASNLESGIPARFSGRGSGTDFALNIHPVEEEDAATYYCQQSNEDPYTFGGGTKLEIK
notes: also called combination 12; combination "12"
B4: anti-cTnT Fab mutant 3 (Y34F, F60W, V101Y) (Fab, V domains shown)
VH: EVQLQQSGPELVKPGASVKMSCKASGYTFTDYFMKWVKQSHGKSLEWIGDINPNNGETWYNQKFKDKATLTVDKSSSTAYMQLNSLTSEDSAVYYCATRYFDYWGQGTTLTVSS
VL: DIVLTQSPASLAVSLGQRATISCKASQSVDYDGTSYMNWFQQKAGQPPKRLIYAASNLESGIPARFSGRGSGTDFALNIHPVEEEDAATYYCQQSNEDPYTFGGGTKLEIK
notes: also called combination 3
B5: anti-cTnT Fab mutant 5 (Y34F, F60W, V101Y + Y104F) (Fab, V domains shown)
VH: EVQLQQSGPELVKPGASVKMSCKASGYTFTDYFMKWVKQSHGKSLEWIGDINPNNGETWYNQKFKDKATLTVDKSSSTAYMQLNSLTSEDSAVYYCATRYFDFWGQGTTLTVSS
VL: DIVLTQSPASLAVSLGQRATISCKASQSVDYDGTSYMNWFQQKAGQPPKRLIYAASNLESGIPARFSGRGSGTDFALNIHPVEEEDAATYYCQQSNEDPYTFGGGTKLEIK
notes: also called combination 5
B6: anti-cTnT Fab mutant 13 (Y34I, F60W, V101Y + Y104F) (Fab, V domains shown)
VH: EVQLQQSGPELVKPGASVKMSCKASGYTFTDYIMKWVKQSHGKSLEWIGDINPNNGETWYNQKFKDKATLTVDKSSSTAYMQLNSLTSEDSAVYYCATRYFDFWGQGTTLTVSS
VL: DIVLTQSPASLAVSLGQRATISCKASQSVDYDGTSYMNWFQQKAGQPPKRLIYAASNLESGIPARFSGRGSGTDFALNIHPVEEEDAATYYCQQSNEDPYTFGGGTKLEIK
notes: also called combination 13
B7: anti-cTnT Fab mutant 7 (Y34F, Y104F) (Fab, V domains shown)
VH: EVQLQQSGPELVKPGASVKMSCKASGYTFTDYFMKWVKQSHGKSLEWIGDINPNNGETFYNQKFKDKATLTVDKSSSTAYMQLNSLTSEDSAVYYCATRVFDFWGQGTTLTVSS
VL: DIVLTQSPASLAVSLGQRATISCKASQSVDYDGTSYMNWFQQKAGQPPKRLIYAASNLESGIPARFSGRGSGTDFALNIHPVEEEDAATYYCQQSNEDPYTFGGGTKLEIK
notes: also called combination 7
B8: anti-cTnT Fab mutant 4 (Y34F, F60W, Y104F) (Fab, V domains shown)
VH: EVQLQQSGPELVKPGASVKMSCKASGYTFTDYFMKWVKQSHGKSLEWIGDINPNNGETWYNQKFKDKATLTVDKSSSTAYMQLNSLTSEDSAVYYCATRVFDFWGQGTTLTVSS
VL: DIVLTQSPASLAVSLGQRATISCKASQSVDYDGTSYMNWFQQKAGQPPKRLIYAASNLESGIPARFSGRGSGTDFALNIHPVEEEDAATYYCQQSNEDPYTFGGGTKLEIK
notes: also called combination 4
B9: anti-cTnT Fab mutant 9 (Y34I) (Fab, V domains shown)
VH: EVQLQQSGPELVKPGASVKMSCKASGYTFTDYIMKWVKQSHGKSLEWIGDINPNNGETFYNQKFKDKATLTVDKSSSTAYMQLNSLTSEDSAVYYCATRVFDYWGQGTTLTVSS
VL: DIVLTQSPASLAVSLGQRATISCKASQSVDYDGTSYMNWFQQKAGQPPKRLIYAASNLESGIPARFSGRGSGTDFALNIHPVEEEDAATYYCQQSNEDPYTFGGGTKLEIK
notes: also called combination 9
B10: anti-cTnT Fab mutant 8 (Y34F, V101Y + Y104F) (Fab, V domains shown)
VH: EVQLQQSGPELVKPGASVKMSCKASGYTFTDYFMKWVKQSHGKSLEWIGDINPNNGETFYNQKFKDKATLTVDKSSSTAYMQLNSLTSEDSAVYYCATRYFDFWGQGTTLTVSS
VL: DIVLTQSPASLAVSLGQRATISCKASQSVDYDGTSYMNWFQQKAGQPPKRLIYAASNLESGIPARFSGRGSGTDFALNIHPVEEEDAATYYCQQSNEDPYTFGGGTKLEIK
notes: also called combination 8
B11: anti-cTnT Fab mutant 2 (Y34F, F60W) (Fab, V domains shown)
VH: EVQLQQSGPELVKPGASVKMSCKASGYTFTDYFMKWVKQSHGKSLEWIGDINPNNGETWYNQKFKDKATLTVDKSSSTAYMQLNSLTSEDSAVYYCATRVFDYWGQGTTLTVSS
VL: DIVLTQSPASLAVSLGQRATISCKASQSVDYDGTSYMNWFQQKAGQPPKRLIYAASNLESGIPARFSGRGSGTDFALNIHPVEEEDAATYYCQQSNEDPYTFGGGTKLEIK
notes: also called combination 2
B12: anti-cTnT Fab mutant 1 (Y34F) (Fab, V domains shown)
VH: EVQLQQSGPELVKPGASVKMSCKASGYTFTDYFMKWVKQSHGKSLEWIGDINPNNGETFYNQKFKDKATLTVDKSSSTAYMQLNSLTSEDSAVYYCATRVFDYWGQGTTLTVSS
VL: DIVLTQSPASLAVSLGQRATISCKASQSVDYDGTSYMNWFQQKAGQPPKRLIYAASNLESGIPARFSGRGSGTDFALNIHPVEEEDAATYYCQQSNEDPYTFGGGTKLEIK
notes: also called combination 1
B13: anti-cTnT Fab mutant 11 (Y34I, F60W, V101Y) (Fab, V domains shown)
VH: EVQLQQSGPELVKPGASVKMSCKASGYTFTDYIMKWVKQSHGKSLEWIGDINPNNGETWYNQKFKDKATLTVDKSSSTAYMQLNSLTSEDSAVYYCATRYFDYWGQGTTLTVSS
VL: DIVLTQSPASLAVSLGQRATISCKASQSVDYDGTSYMNWFQQKAGQPPKRLIYAASNLESGIPARFSGRGSGTDFALNIHPVEEEDAATYYCQQSNEDPYTFGGGTKLEIK
notes: also called combination 11

This experiment concerns the target T1, recombinant human cardiac troponin T (human, UniProt P45379 2-298).
T1 construct: In the ECL assay the cTnT came from the Troponin T hs CalSet calibrator; also called cTnT; TnT
Nature of the experiment: SPR (Biacore T200, 37 C), Fab captured, cTnT analyte. As to the method:
Detailed kinetic investigations were performed at 37° C. on a GE Healthcare T200 instrument. A Biacore CM-5 series S sensor was mounted into the instrument and was preconditioned according to the manufacturer's instructions. The system buffer was HBS-ET (10 mM HEPES (pH 7.4), 150 mM NaCl, 1 mM EDTA, 0.05% (w/v) Tween® 20). The sample buffer was the system buffer supplemented with 1 mg/ml CMD (Carboxymethyldextran, Fluka). In one embodiment an anti-human antibody capture system was established on the CMS biosensor. GAHF(ab′)2, (goat anti human F(ab′)2) (Code Nr.: 109-005-097, lot #13.12.2005, Jackson Immuno Research) was immobilized according to the manufacturer's instructions using NHS/EDC chemistry. 30 μg/ml GAHF(ab′)2 in 10 mM sodium acetate buffer (pH 5.0) were preconcentrated to the flow cells 1, 2, 3 and 4 and were immobilized with 10.000 RU GAHF(ab′)2. The sensor was subsequently saturated with 1 M ethanolamine pH 8.5.
Chimeric anti-TnT antibody fragments were periplasmatically expressed in E. coli cells as described and were lyzed by methods known (for technical details see: Andersen, D. C. & Reilly, D. E. (2004); Production technologies for monoclonal antibodies and their fragments. Curr Opin Biotechnol 15, 456-62). The lysates were diluted 1:20 in sample buffer. Fab fragments were captured via their humanized framework regions from the expression lysates on the biosensor at a flow rate of 10 μl/min for 1 min followed by a 2 min washing step with 10-fold concentrated HBS-EP buffer at 30 μl/min. The Fab fragment capture level (CL) in response units (RU) was monitored. Recombinant human TnT (Roche, 37 kDa) was diluted in sample buffer at 90 nM and a concentration series was produced with […], 30 nM, 11 nM, 3.3 nM, 1.1 nM, 0 nM, 3.3 nM TnT concentration. The analyte concentration series were 80 μl/min for 3 min association phase and the dissociation phase was monitored for 3 min.
The kinetic parameters ka [1/Ms], kd [1/s], t1/2 diss [min], KD [M] and the binding stoichiometry (Molar Ratio) (for details see: Schraeml, M. & Biehl, M. (2012); Kinetic screening in the antibody development process. Methods Mol Biol 901, 171-81.) of the cTnT analyte were determined for each Fab fragment mutant with the Biaevaluation Software (GE healthcare) according to the manufacturer's instructions.
Background: SPR reads the build-up and loss of mass on a sensor chip optically.
Turning to B1, the Kd worked out at 0.58 nM, the “MR (Molar Ratio)” value was 0.6, the koff was 0.0014 s⁻¹ and the kon came out at 2.5e+06 M⁻¹ s⁻¹. Moreover, the t/2-diss stood at 8 min.
In the same order, the values of B2 are 1.1 nM, 0.7, 0.0023 s⁻¹, 2.2e+06 M⁻¹ s⁻¹ and 5 min.
In the case of B3, the Kd was 0.32 nM, the “MR (Molar Ratio)” value was 0.5, the koff was found to be 0.00037 s⁻¹ and the kon amounted to 1.18e+06 M⁻¹ s⁻¹. In addition, the t/2-diss amounted to 31 min.
Turning to B4, the Kd is 0.37 nM, the “MR (Molar Ratio)” value worked out at 0.7, the koff is 0.00079 s⁻¹ and the kon amounted to 2.1e+06 M⁻¹ s⁻¹. In addition, the t/2-diss came to 15 min.
In the same order, the values of B5 are 0.23 nM, 0.7, 0.00057 s⁻¹, 2.4e+06 M⁻¹ s⁻¹ and 20 min.
For the molecule B6, the Kd was 0.62 nM, the “MR (Molar Ratio)” value is 0.7, the koff was 0.0019 s⁻¹ and the kon came to 3e+06 M⁻¹ s⁻¹. In addition, the t/2-diss came to 6 min.
For the molecule B7, the Kd was determined as 0.45 nM, the “MR (Molar Ratio)” value is 0.7, the koff was found to be 0.0011 s⁻¹ and the kon is 2.4e+06 M⁻¹ s⁻¹. Also, the t/2-diss was found to be 11 min.
Regarding B8, the Kd amounted to 0.27 nM, the “MR (Molar Ratio)” value amounted to 0.7, the koff came out at 0.00072 s⁻¹ and the kon came to 2.7e+06 M⁻¹ s⁻¹. The t/2-diss was 16 min.
In the case of B9, the Kd stood at 1.2 nM, the “MR (Molar Ratio)” value is 0.7, the off-rate (koff) was 0.0023 s⁻¹ and the kon amounted to 2e+06 M⁻¹ s⁻¹. The t/2-diss stood at 5 min.
As for B10, the Kd came out at 0.2 nM, the “MR (Molar Ratio)” value turned out to be 0.7, the koff was found to be 0.00052 s⁻¹ and the kon turned out to be 2.7e+06 M⁻¹ s⁻¹. Also, the t/2-diss came to 22 min.
Turning to B11, the Kd worked out at 0.46 nM, the “MR (Molar Ratio)” value is 0.7, the koff was 0.001 s⁻¹ and the kon was 2.2e+06 M⁻¹ s⁻¹. For the same molecule, the t/2-diss was 11 min.
Consider B12, for which the Kd was 0.62 nM, the “MR (Molar Ratio)” value amounted to 0.7, the koff stood at 0.0014 s⁻¹ and the kon was determined as 2.3e+06 M⁻¹ s⁻¹. Moreover, the t/2-diss turned out to be 8 min.
B13: the Kd came out at 1 nM, the “MR (Molar Ratio)” value was found to be 0.7, the koff worked out at 0.0022 s⁻¹ and the on-rate constant (kon) is 2.2e+06 M⁻¹ s⁻¹. Moreover, the t/2-diss is 5 min.
